In US10005829B2, “Synthetic linear apelin mimetics for the treatment of heart failure” (priority 2012, dated 2018):
Values belong to the binder of their own block, whether it stands above or below them. [ ]: non-standard residue; d: D form. pGlu = O=C1CC[C@@H](C(=O)O)N1; dNle = CCCC[C@@H](N)C(=O)O; dNva = CCC[C@@H](N)C(=O)O; Nle = CCCC[C@H](N)C(=O)O; Aib = CC(C)(N)C(=O)O

Molecular target: T1, APJ receptor (human, UniProt P35414 1-380)
T1 sequence (looked up): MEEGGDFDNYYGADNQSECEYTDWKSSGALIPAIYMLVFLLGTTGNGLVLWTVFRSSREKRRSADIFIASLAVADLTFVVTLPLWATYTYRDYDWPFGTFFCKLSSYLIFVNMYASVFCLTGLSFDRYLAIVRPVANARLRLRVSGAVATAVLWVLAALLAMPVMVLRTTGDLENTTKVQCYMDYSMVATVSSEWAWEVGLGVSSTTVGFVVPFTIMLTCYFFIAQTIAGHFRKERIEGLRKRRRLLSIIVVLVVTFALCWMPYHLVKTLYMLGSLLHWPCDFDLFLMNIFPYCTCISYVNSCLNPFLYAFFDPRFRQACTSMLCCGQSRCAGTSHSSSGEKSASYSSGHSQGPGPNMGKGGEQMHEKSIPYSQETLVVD
Experiment: cell-based or functional assay

- hAPJ Ca^2+ Flux EC50: 4.4 nM
B1: pE-R-P-R-L-a-L-K-G-P-nle-a-f-OH (peptide)
peptide: [pGlu]RPRL[dA]LKGP[dNle][dA][dF]-OH
SMILES: CCCC[C@@H](NC(=O)[C@@H]1CCCN1C(=O)CNC(=O)[C@H](CCCCN)NC(=O)[C@H](CC(C)C)NC(=O)[C@@H](C)NC(=O)[C@H](CC(C)C)NC(=O)[C@H](CCCNC(=N)N)NC(=O)[C@@H]1CCCN1C(=O)[C@H](CCCNC(=N)N)NC(=O)[C@@H]1CCC(=O)N1)C(=O)N[C@H](C)C(=O)N[C@H](Cc1ccccc1)C(=O)O

- hAPJ Ca^2+ Flux EC50: 2.4 nM
B2: pE-R-P-R-L-S-Aib-K-G-P-Nle-a-F-OH (peptide)
peptide: [pGlu]RPRLS[Aib]KGP[Nle][dA]F-OH
SMILES: CCCC[C@H](NC(=O)[C@@H]1CCCN1C(=O)CNC(=O)[C@H](CCCCN)NC(=O)C(C)(C)NC(=O)[C@H](CO)NC(=O)[C@H](CC(C)C)NC(=O)[C@H](CCCNC(=N)N)NC(=O)[C@@H]1CCCN1C(=O)[C@H](CCCNC(=N)N)NC(=O)[C@@H]1CCC(=O)N1)C(=O)N[C@H](C)C(=O)N[C@@H](Cc1ccccc1)C(=O)O

- hAPJ Ca^2+ Flux EC50: 16.1 nM
B4: pE-R-P-R-L-a-a-K-G-P-nle-a-f-OH (peptide)
peptide: [pGlu]RPRL[dA][dA]KGP[dNle][dA][dF]-OH
SMILES: CCCC[C@@H](NC(=O)[C@@H]1CCCN1C(=O)CNC(=O)[C@H](CCCCN)NC(=O)[C@@H](C)NC(=O)[C@@H](C)NC(=O)[C@H](CC(C)C)NC(=O)[C@H](CCCNC(=N)N)NC(=O)[C@@H]1CCCN1C(=O)[C@H](CCCNC(=N)N)NC(=O)[C@@H]1CCC(=O)N1)C(=O)N[C@H](C)C(=O)N[C@H](Cc1ccccc1)C(=O)O

- hAPJ Ca^2+ Flux EC50: 5 nM
B7: pE-R-P-R-(D-Leu)-S-Aib-K-G-P-nle-a-f-OH (peptide)
peptide: [pGlu]RPR[dL]S[Aib]KGP[dNle][dA][dF]-OH
SMILES: CCCC[C@@H](NC(=O)[C@@H]1CCCN1C(=O)CNC(=O)[C@H](CCCCN)NC(=O)C(C)(C)NC(=O)[C@H](CO)NC(=O)[C@@H](CC(C)C)NC(=O)[C@H](CCCNC(=N)N)NC(=O)[C@@H]1CCCN1C(=O)[C@H](CCCNC(=N)N)NC(=O)[C@@H]1CCC(=O)N1)C(=O)N[C@H](C)C(=O)N[C@H](Cc1ccccc1)C(=O)O

- hAPJ Ca^2+ Flux EC50: 8.7 nM
B10: pE-R-P-R-L-a-H-K-G-P-nva-a-f-OH (peptide)
peptide: [pGlu]RPRL[dA]HKGP[dNva][dA][dF]-OH
SMILES: CCC[C@@H](NC(=O)[C@@H]1CCCN1C(=O)CNC(=O)[C@H](CCCCN)NC(=O)[C@H](Cc1c[nH]cn1)NC(=O)[C@@H](C)NC(=O)[C@H](CC(C)C)NC(=O)[C@H](CCCNC(=N)N)NC(=O)[C@@H]1CCCN1C(=O)[C@H](CCCNC(=N)N)NC(=O)[C@@H]1CCC(=O)N1)C(=O)N[C@H](C)C(=O)N[C@H](Cc1ccccc1)C(=O)O

- hAPJ Ca^2+ Flux EC50: 3.9 nM
B12: pE-R-P-R-L-S-Aib-K-G-P-nle-a-F-OH (peptide)
peptide: [pGlu]RPRLS[Aib]KGP[dNle][dA]F-OH
SMILES: CCCC[C@@H](NC(=O)[C@@H]1CCCN1C(=O)CNC(=O)[C@H](CCCCN)NC(=O)C(C)(C)NC(=O)[C@H](CO)NC(=O)[C@H](CC(C)C)NC(=O)[C@H](CCCNC(=N)N)NC(=O)[C@@H]1CCCN1C(=O)[C@H](CCCNC(=N)N)NC(=O)[C@@H]1CCC(=O)N1)C(=O)N[C@H](C)C(=O)N[C@@H](Cc1ccccc1)C(=O)O

- hAPJ Ca^2+ Flux EC50: 72.8 nM
B13: pE-R-P-R-L-S-f-K-G-P-nle-a-f-OH (peptide)
peptide: [pGlu]RPRLS[dF]KGP[dNle][dA][dF]-OH
SMILES: CCCC[C@@H](NC(=O)[C@@H]1CCCN1C(=O)CNC(=O)[C@H](CCCCN)NC(=O)[C@@H](Cc1ccccc1)NC(=O)[C@H](CO)NC(=O)[C@H](CC(C)C)NC(=O)[C@H](CCCNC(=N)N)NC(=O)[C@@H]1CCCN1C(=O)[C@H](CCCNC(=N)N)NC(=O)[C@@H]1CCC(=O)N1)C(=O)N[C@H](C)C(=O)N[C@H](Cc1ccccc1)C(=O)O

- hAPJ Ca^2+ Flux EC50: 4.5 nM
B14: pE-R-P-R-L-a-H-K-G-P-Nle-a-F-OH (peptide)
peptide: [pGlu]RPRL[dA]HKGP[Nle][dA]F-OH

- hAPJ Ca^2+ Flux EC50: 79.9 nM
B15: pE-R-P-R-L-S-Aib-k-G-P-nle-a-f-OH (peptide)
peptide: [pGlu]RPRLS[Aib][dK]GP[dNle][dA][dF]-OH
SMILES: CCCC[C@@H](NC(=O)[C@@H]1CCCN1C(=O)CNC(=O)[C@@H](CCCCN)NC(=O)C(C)(C)NC(=O)[C@H](CO)NC(=O)[C@H](CC(C)C)NC(=O)[C@H](CCCNC(=N)N)NC(=O)[C@@H]1CCCN1C(=O)[C@H](CCCNC(=N)N)NC(=O)[C@@H]1CCC(=O)N1)C(=O)N[C@H](C)C(=O)N[C@H](Cc1ccccc1)C(=O)O

- hAPJ Ca^2+ Flux EC50: 0.9 nM
B16: pE-R-P-R-L-a-H-K-G-P-nle-nva-f-OH (peptide)
peptide: [pGlu]RPRL[dA]HKGP[dNle][dNva][dF]-OH
SMILES: CCCC[C@@H](NC(=O)[C@@H]1CCCN1C(=O)CNC(=O)[C@H](CCCCN)NC(=O)[C@H](Cc1c[nH]cn1)NC(=O)[C@@H](C)NC(=O)[C@H](CC(C)C)NC(=O)[C@H](CCCNC(=N)N)NC(=O)[C@@H]1CCCN1C(=O)[C@H](CCCNC(=N)N)NC(=O)[C@@H]1CCC(=O)N1)C(=O)N[C@H](CCC)C(=O)N[C@H](Cc1ccccc1)C(=O)O

- hAPJ Ca^2+ Flux EC50: 3.3 nM
B19: pE-R-P-R-L-S-Aib-K-G-P-Nle-a-f-OH (peptide)
peptide: [pGlu]RPRLS[Aib]KGP[Nle][dA][dF]-OH
SMILES: CCCC[C@H](NC(=O)[C@@H]1CCCN1C(=O)CNC(=O)[C@H](CCCCN)NC(=O)C(C)(C)NC(=O)[C@H](CO)NC(=O)[C@H](CC(C)C)NC(=O)[C@H](CCCNC(=N)N)NC(=O)[C@@H]1CCCN1C(=O)[C@H](CCCNC(=N)N)NC(=O)[C@@H]1CCC(=O)N1)C(=O)N[C@H](C)C(=O)N[C@H](Cc1ccccc1)C(=O)O

- hAPJ Ca^2+ Flux EC50: 2.4 nM
B21: pE-R-P-R-L-a-H-K-G-P-nle-abu-f-OH (peptide)
peptide: ERPRLAHKGPLXF
modifications: pE at 1; D-Ala at 6; D-Nle at 11; D-Abu at 12; D-Phe at 13

Second part, the binder before the results:

B3: H-R-P-R-L-a-H-K-G-P-nle-f-OH (peptide)
peptide: H-RPRL[dA]HKGP[dNle][dF]-OH
SMILES: CCCC[C@@H](NC(=O)[C@@H]1CCCN1C(=O)CNC(=O)[C@H](CCCCN)NC(=O)[C@H](Cc1c[nH]cn1)NC(=O)[C@@H](C)NC(=O)[C@H](CC(C)C)NC(=O)[C@H](CCCNC(=N)N)NC(=O)[C@@H]1CCCN1C(=O)[C@@H](N)CCCNC(=N)N)C(=O)N[C@H](Cc1ccccc1)C(=O)O
- hAPJ Ca^2+ Flux EC50: 1.4 nM

B5: pE-R-P-R-L-S-Aib-K-G-P-Nle-P-f-OH (peptide)
peptide: ERPRLSXKGPLPF
modifications: pE at 1; Aib at 7; Nle (L-norleucine) at 11; D-Phe at 13
- hAPJ Ca^2+ Flux EC50: 4.5 nM

B6: pE-R-P-R-L-a-H-K-G-P-nle-a-NH(Phenethyl) (peptide)
peptide: ERPRLAHKGPLA
modifications: pE at 1; D-Ala at 6; D-Nle at 11; D-Ala at 12; C-terminal NH(Phenethyl) amide
- hAPJ Ca^2+ Flux EC50: 16.2 nM

B8: pE-R-P-R-L-nva-H-K-G-P-nle-a-f-OH (peptide)
peptide: [pGlu]RPRL[dNva]HKGP[dNle][dA][dF]-OH
SMILES: CCCC[C@@H](NC(=O)[C@@H]1CCCN1C(=O)CNC(=O)[C@H](CCCCN)NC(=O)[C@H](Cc1c[nH]cn1)NC(=O)[C@@H](CCC)NC(=O)[C@H](CC(C)C)NC(=O)[C@H](CCCNC(=N)N)NC(=O)[C@@H]1CCCN1C(=O)[C@H](CCCNC(=N)N)NC(=O)[C@@H]1CCC(=O)N1)C(=O)N[C@H](C)C(=O)N[C@H](Cc1ccccc1)C(=O)O
- hAPJ Ca^2+ Flux EC50: 19.5 nM

B9: pE-R-P-R-L-abu-H-K-G-P-nle-a-f-OH (peptide)
peptide: ERPRLXHKGPLAF
modifications: pE at 1; D-Abu at 6; D-Nle at 11; D-Ala at 12; D-Phe at 13
- hAPJ Ca^2+ Flux EC50: 3 nM

B11: pE-R-P-R-L-S-Aib-K-G-P-nle-a-f-OH (peptide)
peptide: [pGlu]RPRLS[Aib]KGP[dNle][dA][dF]-OH
SMILES: CCCC[C@@H](NC(=O)[C@@H]1CCCN1C(=O)CNC(=O)[C@H](CCCCN)NC(=O)C(C)(C)NC(=O)[C@H](CO)NC(=O)[C@H](CC(C)C)NC(=O)[C@H](CCCNC(=N)N)NC(=O)[C@@H]1CCCN1C(=O)[C@H](CCCNC(=N)N)NC(=O)[C@@H]1CCC(=O)N1)C(=O)N[C@H](C)C(=O)N[C@H](Cc1ccccc1)C(=O)O
- hAPJ Ca^2+ Flux EC50: 2 nM

B17: pE-R-a-R-L-a-H-K-G-P-nle-a-f-OH (peptide)
peptide: [pGlu]R[dA]RL[dA]HKGP[dNle][dA][dF]-OH
SMILES: CCCC[C@@H](NC(=O)[C@@H]1CCCN1C(=O)CNC(=O)[C@H](CCCCN)NC(=O)[C@H](Cc1c[nH]cn1)NC(=O)[C@@H](C)NC(=O)[C@H](CC(C)C)NC(=O)[C@H](CCCNC(=N)N)NC(=O)[C@@H](C)NC(=O)[C@H](CCCNC(=N)N)NC(=O)[C@@H]1CCC(=O)N1)C(=O)N[C@H](C)C(=O)N[C@H](Cc1ccccc1)C(=O)O
- hAPJ Ca^2+ Flux EC50: 623 nM

B18: pE-R-P-R-L-a-f-K-G-P-nle-a-f-OH (peptide)
peptide: [pGlu]RPRL[dA][dF]KGP[dNle][dA][dF]-OH
SMILES: CCCC[C@@H](NC(=O)[C@@H]1CCCN1C(=O)CNC(=O)[C@H](CCCCN)NC(=O)[C@@H](Cc1ccccc1)NC(=O)[C@@H](C)NC(=O)[C@H](CC(C)C)NC(=O)[C@H](CCCNC(=N)N)NC(=O)[C@@H]1CCCN1C(=O)[C@H](CCCNC(=N)N)NC(=O)[C@@H]1CCC(=O)N1)C(=O)N[C@H](C)C(=O)N[C@H](Cc1ccccc1)C(=O)O
- hAPJ Ca^2+ Flux EC50: 9.2 nM

B20: pE-R-P-R-L-S-a-K-G-P-nle-a-f-OH (peptide)
peptide: [pGlu]RPRLS[dA]KGP[dNle][dA][dF]-OH
SMILES: CCCC[C@@H](NC(=O)[C@@H]1CCCN1C(=O)CNC(=O)[C@H](CCCCN)NC(=O)[C@@H](C)NC(=O)[C@H](CO)NC(=O)[C@H](CC(C)C)NC(=O)[C@H](CCCNC(=N)N)NC(=O)[C@@H]1CCCN1C(=O)[C@H](CCCNC(=N)N)NC(=O)[C@@H]1CCC(=O)N1)C(=O)N[C@H](C)C(=O)N[C@H](Cc1ccccc1)C(=O)O
- hAPJ Ca^2+ Flux EC50: 8.5 nM
